One assay concerns the target HLA-A*02:01. Put plainly: IEDB peptide-MHC binding, cellular MHC/competitive/fluorescence; ≥ and ≤ were set here for values at or beyond the usual limits of such assays.
The next assay concerns the target HLA-A*02:02. Described as above.
The next assay has as its target HLA-A*02:06. The description is as above.
A further assay has as its target HLA-A*68:02. The description is as above.
The next assay addresses HLA-A*02:03. In words: IEDB peptide-MHC binding, purified MHC/competitive/radioactivity; ≥ and ≤ were set here for values at or beyond the usual limits of such assays.
Setting [1] is: source organism: Influenza A virus.
Where [2] appears, read: source organism: Vaccinia virus WR.

Where only a bound is given, the exact number is not on record here.

As usually defined, the IC50 is the point on the concentration scale where inhibition reaches its midpoint. On to NTSQRGIL, for which the IC50 was 6.68 µM in the assay with HLA-A*02:01 (setting [1]); 5.1 µM with HLA-A*02:02 (setting [1]); ≥ 70 µM with HLA-A*02:06 (setting [1]); ≥ 70 µM in the assay with HLA-A*68:02 (setting [1]); 2.79 µM with HLA-A*02:03 (setting [1]).

Consider EIVSHLRAST, for which the IC50 is ≥ 70 µM in the assay with HLA-A*02:01 (setting [2]); 5.15 µM in the assay with HLA-A*02:02 (setting [2]); 12.6 µM with HLA-A*02:06 (setting [2]); 6.33 µM with HLA-A*68:02 (setting [2]); 2.81 µM with HLA-A*02:03 (setting [2]).

With SVKYYGRST, the IC50 came to 25.9 µM in the assay with HLA-A*02:01 (setting [2]); 6.79 µM with HLA-A*02:02 (setting [2]); 19.5 µM in the assay with HLA-A*02:06 (setting [2]); 30.7 µM with HLA-A*68:02 (setting [2]); 1.16 µM with HLA-A*02:03 (setting [2]).

Consider LMSDNPKAST, for which the IC50 was 8.98 µM in the assay with HLA-A*02:01 (setting [2]); 8.88 µM with HLA-A*02:02 (setting [2]); 47.4 µM in the assay with HLA-A*02:06 (setting [2]); ≥ 70 µM with HLA-A*68:02 (setting [2]); 0.938 µM with HLA-A*02:03 (setting [2]).

Regarding QVKDNIISRT, the IC50 stood at 40.9 µM with HLA-A*02:01 (setting [2]); 17.8 µM with HLA-A*02:02 (setting [2]); 34.3 µM with HLA-A*02:06 (setting [2]); 24.2 µM in the assay with HLA-A*68:02 (setting [2]); 0.421 µM in the assay with HLA-A*02:03 (setting [2]).

In the case of EQYTCNKPYT, the IC50 with HLA-A*02:01 (setting [2]) is ≥ 70 µM; with HLA-A*02:02 (setting [2]), 14 µM; with HLA-A*02:06 (setting [2]), 45.7 µM; in the assay with HLA-A*68:02 (setting [2]), 20.4 µM; with HLA-A*02:03 (setting [2]), 3.01 µM.

Turning to SMTSDSKSI, the IC50 came out at 34.8 µM in the assay with HLA-A*02:01 (setting [2]); 8.35 µM in the assay with HLA-A*02:02 (setting [2]); 56.1 µM with HLA-A*02:06 (setting [2]); 8.09 µM in the assay with HLA-A*68:02 (setting [2]); 2.3 µM in the assay with HLA-A*02:03 (setting [2]).

Consider IIELPYVGDT, for which the IC50 is 46.8 µM with HLA-A*02:01 (setting [2]); 13.7 µM in the assay with HLA-A*02:02 (setting [2]); 17 µM with HLA-A*02:06 (setting [2]); ≥ 70 µM with HLA-A*68:02 (setting [2]); 4.42 µM with HLA-A*02:03 (setting [2]).

Take GILIYDDNI: the IC50 was 11.3 µM with HLA-A*02:01 (setting [2]); 11.7 µM with HLA-A*02:02 (setting [2]); 13.3 µM with HLA-A*02:06 (setting [2]); 33.5 µM with HLA-A*68:02 (setting [2]); 1.7 µM in the assay with HLA-A*02:03 (setting [2]).

As for ELTSNCTRTT, the IC50 with HLA-A*02:01 (setting [2]) was found to be 15.2 µM; with HLA-A*02:02 (setting [2]), 14.6 µM; with HLA-A*02:06 (setting [2]) it was 5.72 µM; in the assay with HLA-A*68:02 (setting [2]) it was 5.04 µM; with HLA-A*02:03 (setting [2]) it was 1.47 µM.

Regarding IIYSKAGNI, the IC50 is 50.7 µM with HLA-A*02:01 (setting [2]); 9.76 µM in the assay with HLA-A*02:02 (setting [2]); 13.7 µM with HLA-A*02:06 (setting [2]); 5.39 µM with HLA-A*68:02 (setting [2]); 0.013 µM with HLA-A*02:03 (setting [2]).

Consider EIKAEMQLKI, for which the IC50 in the assay with HLA-A*02:01 (setting [2]) amounted to 27.5 µM; with HLA-A*02:02 (setting [2]) it was 16.9 µM; in the assay with HLA-A*02:06 (setting [2]), 14.3 µM; in the assay with HLA-A*68:02 (setting [2]), 5.12 µM; in the assay with HLA-A*02:03 (setting [2]) it was 4.76 µM.

For the sequence FLKVPAQNA, the IC50 is 11.3 µM with HLA-A*02:01 (setting [1]); 6.66 µM in the assay with HLA-A*02:02 (setting [1]); ≥ 70 µM in the assay with HLA-A*02:06 (setting [1]); 29 µM with HLA-A*68:02 (setting [1]); 0.838 µM in the assay with HLA-A*02:03 (setting [1]).

GIIITVGML: the IC50 with HLA-A*02:01 (setting [2]) was 6.56 µM; in the assay with HLA-A*02:02 (setting [2]) it was 8.67 µM; with HLA-A*02:06 (setting [2]), 18.4 µM; with HLA-A*68:02 (setting [2]), 19.6 µM; in the assay with HLA-A*02:03 (setting [2]), 0.349 µM.

Consider EILRNYLRL, for which the IC50 was 10.5 µM with HLA-A*02:01 (setting [2]); 14 µM in the assay with HLA-A*02:02 (setting [2]); 12.9 µM in the assay with HLA-A*02:06 (setting [2]); 9.23 µM with HLA-A*68:02 (setting [2]); 2.09 µM with HLA-A*02:03 (setting [2]).

For NALLKHRFEII, the IC50 in the assay with HLA-A*02:01 (setting [1]) stood at 22.7 µM; with HLA-A*02:02 (setting [1]) it was 11.2 µM; with HLA-A*02:06 (setting [1]) it was 5.36 µM; with HLA-A*68:02 (setting [1]) it was 12.4 µM; with HLA-A*02:03 (setting [1]), 4.1 µM.

As for LANERYRSA, the IC50 is 49.1 µM in the assay with HLA-A*02:01 (setting [2]); 31.3 µM with HLA-A*02:02 (setting [2]); ≥ 70 µM in the assay with HLA-A*02:06 (setting [2]); ≥ 70 µM with HLA-A*68:02 (setting [2]); 0.554 µM with HLA-A*02:03 (setting [2]).

Consider FVKKMLPKII, for which the IC50 with HLA-A*02:01 (setting [2]) is 32.7 µM; with HLA-A*02:02 (setting [2]), 11.1 µM; in the assay with HLA-A*02:06 (setting [2]) it was 6.71 µM; with HLA-A*68:02 (setting [2]) it was 14.1 µM; with HLA-A*02:03 (setting [2]) it was 1.14 µM.

SMYTRLRQDT: the IC50 is 32.9 µM in the assay with HLA-A*02:01 (setting [2]); 6.56 µM with HLA-A*02:02 (setting [2]); 42 µM with HLA-A*02:06 (setting [2]); ≥ 70 µM in the assay with HLA-A*68:02 (setting [2]); 1.14 µM with HLA-A*02:03 (setting [2]).

On to VIRNEVNDT, for which the half-maximal inhibitory concentration (IC50) was ≥ 70 µM in the assay with HLA-A*02:01 (setting [2]); 19.9 µM in the assay with HLA-A*02:02 (setting [2]); ≥ 70 µM with HLA-A*02:06 (setting [2]); 28.3 µM with HLA-A*68:02 (setting [2]); 0.82 µM with HLA-A*02:03 (setting [2]).

Consider ILSEKRKDTI, for which the IC50 in the assay with HLA-A*02:01 (setting [2]) is ≥ 70 µM; with HLA-A*02:02 (setting [2]) it was 44 µM; in the assay with HLA-A*02:06 (setting [2]) it was ≥ 70 µM; with HLA-A*68:02 (setting [2]), ≥ 70 µM; with HLA-A*02:03 (setting [2]), 0.541 µM.

In the case of MISTYPGNT, the IC50 with HLA-A*02:01 (setting [2]) stood at 22.1 µM; in the assay with HLA-A*02:02 (setting [2]), 5.49 µM; in the assay with HLA-A*02:06 (setting [2]) it was 25.7 µM; in the assay with HLA-A*68:02 (setting [2]), 14.7 µM; in the assay with HLA-A*02:03 (setting [2]), 0.229 µM.

Regarding DAKRNSKSLV, the IC50 with HLA-A*02:01 (setting [2]) is 30.3 µM; in the assay with HLA-A*02:02 (setting [2]), 13.3 µM; with HLA-A*02:06 (setting [2]), 52.1 µM; with HLA-A*68:02 (setting [2]), 12.6 µM; with HLA-A*02:03 (setting [2]) it was 2.87 µM.

In the case of GIRCVSNLDI, the IC50 in the assay with HLA-A*02:01 (setting [2]) was ≥ 70 µM; with HLA-A*02:02 (setting [2]) it was 20.1 µM; with HLA-A*02:06 (setting [2]), 33 µM; with HLA-A*68:02 (setting [2]), ≥ 70 µM; in the assay with HLA-A*02:03 (setting [2]), 3.87 µM.

Consider AAGAAVKGV, for which the IC50 in the assay with HLA-A*02:01 (setting [1]) was 56.8 µM; with HLA-A*02:02 (setting [1]), ≥ 70 µM; with HLA-A*02:06 (setting [1]), 25.5 µM; with HLA-A*68:02 (setting [1]) it was 26 µM; with HLA-A*02:03 (setting [1]), 2.3 µM.

For the sequence LISSDGARVI, the IC50 in the assay with HLA-A*02:01 (setting [2]) stood at 12.7 µM; with HLA-A*02:02 (setting [2]), 7.18 µM; with HLA-A*02:06 (setting [2]), 34.9 µM; with HLA-A*68:02 (setting [2]), 17.9 µM; with HLA-A*02:03 (setting [2]) it was 1.15 µM.

Regarding QMYRKFSRCT, the IC50 is 27.1 µM with HLA-A*02:01 (setting [2]); 25.7 µM with HLA-A*02:02 (setting [2]); 14.7 µM with HLA-A*02:06 (setting [2]); 48.2 µM in the assay with HLA-A*68:02 (setting [2]); 2.27 µM with HLA-A*02:03 (setting [2]).

Turning to VTKRDESSI, the half-maximal inhibitory concentration (IC50) is ≥ 70 µM in the assay with HLA-A*02:01 (setting [2]); 8.05 µM in the assay with HLA-A*02:02 (setting [2]); 38.1 µM in the assay with HLA-A*02:06 (setting [2]); 8.1 µM with HLA-A*68:02 (setting [2]); 2.14 µM in the assay with HLA-A*02:03 (setting [2]).

Take AMHDKKIDI: the IC50 amounted to 8.85 µM with HLA-A*02:01 (setting [2]); 17.2 µM in the assay with HLA-A*02:02 (setting [2]); 42 µM in the assay with HLA-A*02:06 (setting [2]); 8 µM with HLA-A*68:02 (setting [2]); 1.52 µM with HLA-A*02:03 (setting [2]).

Turning to ITNILGGVL, the IC50 was ≥ 70 µM with HLA-A*02:01 (setting [2]); 7.38 µM in the assay with HLA-A*02:02 (setting [2]); 32.5 µM with HLA-A*02:06 (setting [2]); 9.24 µM with HLA-A*68:02 (setting [2]); 2.44 µM with HLA-A*02:03 (setting [2]).

For NLERETGLSA, the IC50 with HLA-A*02:01 (setting [2]) turned out to be 17.5 µM; with HLA-A*02:02 (setting [2]) it was 17.6 µM; in the assay with HLA-A*02:06 (setting [2]), 15 µM; with HLA-A*68:02 (setting [2]) it was 31.3 µM; in the assay with HLA-A*02:03 (setting [2]) it was 1.66 µM.

As to AAAKTPVIVV, the IC50 was determined as 44.3 µM with HLA-A*02:01 (setting [2]); 8.04 µM in the assay with HLA-A*02:02 (setting [2]); 13.4 µM with HLA-A*02:06 (setting [2]); 5.25 µM with HLA-A*68:02 (setting [2]); 1.52 µM in the assay with HLA-A*02:03 (setting [2]).

With RASAGQISV, the IC50 with HLA-A*02:01 (setting [1]) turned out to be 19.6 µM; in the assay with HLA-A*02:02 (setting [1]) it was 38.8 µM; with HLA-A*02:06 (setting [1]), 11.5 µM; with HLA-A*68:02 (setting [1]), 8.55 µM; in the assay with HLA-A*02:03 (setting [1]) it was 4.96 µM.

For the sequence DIRDKYMEL, the IC50 with HLA-A*02:01 (setting [2]) was determined as 10.3 µM; in the assay with HLA-A*02:02 (setting [2]), 24.3 µM; with HLA-A*02:06 (setting [2]), 14.6 µM; with HLA-A*68:02 (setting [2]), 14.7 µM; in the assay with HLA-A*02:03 (setting [2]) it was 3.86 µM.

Take IAMLKSKNI: the IC50 was determined as 46.7 µM with HLA-A*02:01 (setting [2]); 37.7 µM in the assay with HLA-A*02:02 (setting [2]); 10.6 µM in the assay with HLA-A*02:06 (setting [2]); 5.87 µM in the assay with HLA-A*68:02 (setting [2]); 0.846 µM with HLA-A*02:03 (setting [2]).

Consider RAMAWTVV, for which the IC50 was 7.6 µM with HLA-A*02:01 (setting [1]); 8.18 µM in the assay with HLA-A*02:02 (setting [1]); 7.78 µM in the assay with HLA-A*02:06 (setting [1]); ≥ 70 µM with HLA-A*68:02 (setting [1]); 2.42 µM in the assay with HLA-A*02:03 (setting [1]).
